Literature values, collected in PMC13312411.
Where two headings read alike, the source gives them in different places.

How the values were obtained:
Hsc70 (Homo sapiens) [1] = target: Hsc70 (Homo sapiens) (UniProt P11142)
Hsc70 (Homo sapiens) [2] = target: Hsc70 (Homo sapiens) (UniProt P11142); remark: listed apart in the source

UniProt P11142, sequence (P11142 2-646): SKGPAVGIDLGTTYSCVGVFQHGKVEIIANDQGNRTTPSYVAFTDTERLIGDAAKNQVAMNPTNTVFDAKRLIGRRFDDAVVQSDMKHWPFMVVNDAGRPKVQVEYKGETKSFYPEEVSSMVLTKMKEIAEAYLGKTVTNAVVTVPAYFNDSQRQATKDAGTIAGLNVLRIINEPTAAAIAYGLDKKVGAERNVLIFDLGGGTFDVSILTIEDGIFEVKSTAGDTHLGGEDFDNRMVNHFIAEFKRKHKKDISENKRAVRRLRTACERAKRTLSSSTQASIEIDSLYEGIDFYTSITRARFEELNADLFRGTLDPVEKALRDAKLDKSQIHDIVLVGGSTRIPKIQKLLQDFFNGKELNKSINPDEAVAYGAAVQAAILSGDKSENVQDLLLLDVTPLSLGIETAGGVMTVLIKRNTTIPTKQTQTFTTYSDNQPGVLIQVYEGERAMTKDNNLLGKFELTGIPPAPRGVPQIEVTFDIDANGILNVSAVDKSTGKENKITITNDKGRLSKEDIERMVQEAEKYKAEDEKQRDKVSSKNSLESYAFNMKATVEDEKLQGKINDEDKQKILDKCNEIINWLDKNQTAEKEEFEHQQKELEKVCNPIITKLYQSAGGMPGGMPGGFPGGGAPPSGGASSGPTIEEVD

Kd (Hsc70 (Homo sapiens) [1]) | Kd (Hsc70 (Homo sapiens) [2]) | Substance
3000 nM |  | DNAJB6 J-domain JD (from UniProt O75190)
 | 400 µM | DNAJB6 JD-GF (open) JD-GF (from UniProt O75190)
